According to the supplement of paper PMC11246515:
± gives the standard deviation of the averaged measurements.

Assay: total protein half-life in vivo (active degradation + dilution); higher = more stable protein
[1] = E. coli NCM3722 delta-clpP delta-lon delta-hslV, growth: N-lim chemostat, doubling time 6 h
[2] = E. coli NCM3722 delta-clpP, growth: N-lim chemostat, doubling time 6 h
[3] = E. coli NCM3722 delta-hslV, growth: N-lim chemostat, doubling time 6 h
[4] = E. coli NCM3722 delta-lon, growth: N-lim chemostat, doubling time 6 h
[5] = E. coli NCM3722 delta-smpB, growth: N-lim chemostat, doubling time 6 h
[6] = wild type E. coli NCM3722, growth: C-lim chemostat, doubling time 6 h
[7] = wild type E. coli NCM3722, growth: C-lim chemostat, doubling time 12 h
[8] = wild type E. coli NCM3722, growth: N-lim chemostat, doubling time 6 h
[9] = wild type E. coli NCM3722, growth: N-lim chemostat, doubling time 12 h
[10] = wild type E. coli NCM3722, growth: P-lim chemostat, doubling time 6 h
[11] = wild type E. coli NCM3722, growth: P-lim chemostat, doubling time 12 h
[12] = wild type E. coli NCM3722, growth: C-lim chemostat, doubling time 3 h

Row | Substance | total protein half-life in vivo [1] [h] | total protein half-life in vivo [2] [h] | total protein half-life in vivo [3] [h] | total protein half-life in vivo [4] [h] | total protein half-life in vivo [5] [h] | total protein half-life in vivo [6] [h] | total protein half-life in vivo [7] [h] | total protein half-life in vivo [8] [h] | total protein half-life in vivo [9] [h] | total protein half-life in vivo [10] [h] | total protein half-life in vivo [11] [h] | total protein half-life in vivo [12] [h]
1 | MAKEDNIEMQGTVLETLPNTMFRVELENGHVVTAHISGKMRKNYIRILTGDKVTVELTPYDLSKGRIVFRSR | 5.28 ± 0.3 | 4.92 ± 1.1 | 4.49 ± 0.57 | 4.94 ± 0.23 | 5.4 ± 0.28 | 5.34 ± 0.62 | 8.41 ± 0.61 | 4.58 | 8.98 ± 0.12 | 4.93 ± 1.6 | 9.85 ± 0.75 | 
2 | MAKNYAALARSVIAALGGVDNISAVTHCMTRLRFVIKDDALIDSPTLKTIPGVLGVVRSDNQCQVIIGNTVSQAFQEVVSLLPGDMQPAQPVGKPKLTLRRIGAGILDALIGTMSPLIPAIIGGSMVKLLAMILEMSGVLTKGSPTLTILNVIGDGAFFFLPLMVAASAAIKFKTNMSLAIAIAGVLVHPSFIELMAKAAQGEHVEFALIPVTAVKYTYTVIPALVMTWCLSYIERWVDSITPAVTKNFLKPMLIVLIAAPLAILLIGPIGIWIGSAISALVYTIHGYLGWLSVAIMGALWPLLVMTGMHRVFTPTIIQTIAETGKEGMVMPSEIGANLSLGGSSLAVAWKTKNPELRQTALAAAASAIMAGISEPALYGVAIRLKRPLIASLISGFICGAVAGMAGLASHSMAAPGLFTSVQFFDPANPMSIVWVFAVMALAVVLSFILTLLLGFEDIPVEEAAAQARKYQSVQPTVAKEVSLN |  |  |  |  |  |  | 3.55 |  |  |  |  | 1.77 ± 0.078
3 | P76347 | 6.25 ± 0.88 | 1.86 |  |  |  |  |  |  | 3.04 |  |  | 
4 | MTLFTTLLVLIFERLFKLGEHWQLDHRLEAFFRRVKHFSLGRTLGMTIIAMGVTFLLLRALQGVLFNVPTLLVWLLIGLLCIGAGKVRLHYHAYLTAASRNDSHARATMAGELTMIHGVPAGCDEREYLRELQNALLWINFRFYLAPLFWLIVGGTWGPVTLMGYAFLRAWQYWLARYQTPHHRLQSGIDAVLHVLDWVPVRLAGVVYALIGHGEKALPAWFASLGDFHTSQYQVLTRLAQFSLAREPHVDKVETPKAAVSMAKKTSFVVVVVIALLTIYGALV [P0AE14] | 6.33 ± 0.16 | 6.29 |  | 5.3 ± 0.39 | 6.02 ± 0.49 | 5.626 ± 0.0074 | 13.1 ± 3.9 | 6.63 ± 0.9 | 14 ± 2.6 |  |  | 3.246 ± 0.031
5 | MKKIDAIIKPFKLDDVREALAEVGITGMTVTEVKGFGRQKGHTELYRGAEYMVDFLPKVKIEIVVPDDIVDTCVDTIIRTAQTGKIGDGKIFVFDVARVIRIRTGEEDDAAI [P0A9Z1] | 5.76 ± 0.58 | 5.59 ± 1.1 | 5.06 ± 0.23 | 5.35 ± 0.13 | 4.77 ± 0.36 | 5.57 ± 0.17 | 10.5 ± 1.1 | 4.68 ± 0.49 | 8.91 ± 0.19 | 5.77 ± 0.31 | 11.6 ± 0.54 | 3.3 ± 0.45
6 | MSASLAILTIGIVPMQEVLPLLTEYIDEDNISHHSLLGKLSREEVMAEYAPEAGEDTILTLLNDNQLAHVSRRKVERDLQGVVEVLDNQGYDVILLMSTANISSMTARNTIFLEPSRILPPLVSSIVEDHQVGVIVPVEEMLPVQAQKWQILQKSPVFSLGNPIHDSEQKIIDAGKELLAKGADVIMLDCLGFHQRHRDLLQKQLDVPVLLSNVLIARLAAELLV [P0AE28] | 3.97 | 2.28 |  |  | 1.41 | 3.15 ± 0.55 | 3.7 | 1.67 ± 0.018 |  |  | 7.89 | 2.32 ± 0.053
7 | MYEALLVVFLIVAIGLVGLIMLQQGKGADMGASFGAGASATLFGSSGSGNFMTRMTALLATLFFIISLVLGNINSNKTNKGSEWENLSAPAKTEQTQPAAPAKPTSDIPN [P0AG99] | 3.64 ± 0.31 | 3.46 ± 0.55 | 3.996 ± 0.032 | 4.58 ± 0.069 | 3.78 ± 0.13 | 4.91 ± 1.3 | 6.22 ± 0.14 | 3.81 ± 0.04 | 4.95 | 3.41 ± 0.17 | 6.12 ± 0.75 | 2.33 ± 0.097
8 | MSQVTENKVISAPVPMTPLQEFWHYFKRNKGAVVGLVYVVIVLFIAIFANWIAPYNPAEQFRDALLAPPAWQEGGSMAHLLGTDDVGRDVLSRLMYGARLSLLVGCLVVVLSLIMGVILGLIAGYFGGLVDNIIMRVVDIMLALPSLLLALVLVAIFGPSIGNAALALTFVALPHYVRLTRAAVLVEVNRDYVTASRVAGAGAMRQMFINIFPNCLAPLIVQASLGFSNAILDMAALGFLGMGAQPPTPEWGTMLSDVLQFAQSAWWVVTFPGLAILLTVLAFNLMGDGLRDALDPKLKQ [P0AEG1] | 6.11 | 5.53 ± 0.37 | 6.45 | 6.14 ± 1 | 5.93 ± 0.46 | > 8 | 12.6 ± 2.1 | 6.39 ± 0.51 | 10.9 ± 2 | 6.16 ± 0.14 | 10.8 ± 2.3 | 3.47
